T1: IAPP fibrils (UniProt P10997 34-70)
T1 construct: Amyloid fibrils of IAPP spotted in the dot blot; also called islet amyloid polypeptide
T1 peptide (looked up): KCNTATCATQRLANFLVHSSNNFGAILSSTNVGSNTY

T2: IAPP monomers (UniProt P10997 34-70)
T2 peptide (looked up): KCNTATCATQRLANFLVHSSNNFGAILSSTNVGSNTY

T3: fibrils of NAC (61-78) (human)
T3 construct: also called NAC (61-78) (F)
T3 peptide: EQVTNVGGAVVTGVTAVA

T4: α-synuclein peptide 1 (1-14) (human)
T4 construct: also called Peptide No. 1
T4 peptide: MDVFMKGLSKAKEG

T5: α-synuclein peptide 2 (8-21) (human)
T5 construct: also called Peptide No. 2
T5 peptide: LSKAKEGVVAAAEK

T6: α-synuclein peptide 3 (15-28) (human)
T6 construct: also called Peptide No. 3
T6 peptide: VVAAAEKTKQGVAE

T7: α-synuclein peptide 6 (36-49) (human)
T7 construct: also called Peptide No. 6
T7 peptide: GVLYVGSKTKEGVV

T8: α-synuclein peptide 7 (43-56) (human)
T8 construct: also called Peptide No. 7
T8 peptide: KTKEGVVHGVATVA

T9: α-synuclein peptide 8 (50-63) (human)
T9 construct: also called Peptide No. 8
T9 peptide: HGVATVAEKTKEQV

T10: α-synuclein peptide 9 (57-70) (human)
T10 construct: also called Peptide No. 9
T10 peptide: EKTKEQVTNVGGAV

T11: α-synuclein peptide 10 (64-77) (human)
T11 construct: also called Peptide No. 10
T11 peptide: TNVGGAVVTGVTAV

T12: α-synuclein peptide 11 (71-84) (human)
T12 construct: also called Peptide No. 11
T12 peptide: VTGVTAVAQKTVEG

T13: α-synuclein peptide 12 (78-91) (human)
T13 construct: also called Peptide No. 12
T13 peptide: AQKTVEGAGSIAAA

T14: α-synuclein peptide 13 (85-98) (human)
T14 construct: also called Peptide No. 13
T14 peptide: AGSIAAATGFVKKD

T15: α-synuclein peptide 14 (92-105) (human)
T15 construct: also called Peptide No. 14
T15 peptide: TGFVKKDQLGKNEE

T16: α-synuclein peptide 15 (99-112) (human)
T16 construct: also called Peptide No. 15
T16 peptide: QLGKNEEGAPQEGI

T17: α-synuclein peptide 16 (106-119) (human)
T17 construct: also called Peptide No. 16
T17 peptide: GAPQEGILEDMPVD

T18: α-synuclein peptide 17 (113-126) (human)
T18 construct: also called Peptide No. 17
T18 peptide: LEDMPVDPDNEAYE

T19: α-synuclein peptide 18 (120-133) (human)
T19 construct: also called Peptide No. 18
T19 peptide: PDNEAYEMPSEEGY

B1: Syn-O1 (antibody, IgG2b, V domains shown)
VH: EVQLVESGGGLVQPKGSLKLSCAASGFTFNTYAMHWVRQAPGKGLEWVARIRSKSSNYATYYADSVKDRFTISRDDSQSMLYLQMNNLKTEDTAMYYCVRPLKWYFDVWGTGTTVTVSS
VL: QIVLTQSPAILSASPGEKVTMTCSASSTVNYMHWYQQKSGTSPKIWIYDTSKLASGVPARFSGSGSWTSYSLTISSMEAEDAATYYCQQWNSNPPTFGAGTKLELK
notes: also called mAb Syn-O1
B2: Syn-F1 (antibody, V domains shown)
VH: DVQLVESGGDLVQPGGSRKLSCAASGFTFSSFGMHWVRQAPEKGLEWVAYINSGSSTIYYADTVKGRFTISRDNPKNTLFLQMTSLRSEDTAMYYCARGNNPGTGYYYSMDYWGQGTSVTVSS
VL: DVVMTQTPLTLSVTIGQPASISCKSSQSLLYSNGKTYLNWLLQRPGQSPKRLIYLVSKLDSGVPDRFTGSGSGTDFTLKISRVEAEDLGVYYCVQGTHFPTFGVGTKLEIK
notes: also called mAb Syn-F1
B3: Syn-F2 (antibody, IgG2a, V domains shown)
VH: DVQLVESGGGLVQPGGSRKLSCAASGFTFSSFGMHWVRQAPEKGLEWVAYISSGSSTIYYADTVKGRFTISRDNPKNTLFLQMTSLRSEDTAMYYCARGNNPGTGYYYAMDYWGQGTSVTVSS
VL: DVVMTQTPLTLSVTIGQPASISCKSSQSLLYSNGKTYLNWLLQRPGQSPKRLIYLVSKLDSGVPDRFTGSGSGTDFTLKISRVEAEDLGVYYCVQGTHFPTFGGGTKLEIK
notes: also called mAb Syn-F2

Experiments:
A-beta fibrils = molecular target: T20, A-beta fibrils (UniProt P05067 672-713, limits assumed); experiment: dot blot
T20 construct: Amyloid fibrils of A-beta spotted in the dot blot; also called β-amyloid
Description: (§1) The membranes were blocked with 5% skimmed milk in PBST (PBS containing 0.05% Tween) and incubated for 1 h at room temperature. […] The membranes were washed and incubated with either 1/20000 diluted goat anti-mouse IgG-HRP (Jackson ImmunoResearch) or 1/10000 diluted goat anti-rabbit IgG-HRP (Jackson Immunoresearch) for 1 h at room temperature. The blots were then developed with Super signal West Pico chemiluminescent substrate.
(§2) C) To test the cross reactivity of our conformational monoclonal antibodies to different fragments of α-synuclein. […] The membranes were washed before incubating with either 1/20000 diluted goat anti-mouse IgG-HRP conjugate (Jackson Immunoresearch) or 1/300000 diluted chicken anti-goat IgG-HRP conjugate (Santa Cruz Biotechnology) for 1 h at room temperature. The blots were then developed with Super signal West Pico chemiluminescent substrate.

A-beta monomers = molecular target: T21, A-beta monomers (UniProt P05067 672-713, limits assumed); experiment: dot blot
T21 construct: also called β-amyloid monomers
Description: as §1, §2

IAPP fibrils = molecular target: T1, IAPP fibrils; experiment: dot blot
Description: as §1, §2

IAPP monomers = molecular target: T2, IAPP monomers; experiment: dot blot
Description: as §1, §2

β-synuclein fibrils = β-synuclein fibrils (UniProt Q16143 1-134); experiment: dot blot
β-synuclein fibrils, sequence (Q16143 whole entry): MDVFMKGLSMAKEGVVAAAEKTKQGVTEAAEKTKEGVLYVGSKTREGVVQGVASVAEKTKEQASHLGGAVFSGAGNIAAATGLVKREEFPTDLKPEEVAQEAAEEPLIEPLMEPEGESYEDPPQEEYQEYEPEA
Description: as §1, §2

β-synuclein monomers = β-synuclein monomers (UniProt Q16143 1-134); experiment: dot blot
β-synuclein monomers, sequence (Q16143 whole entry): as above
Description: as §1, §2

γ-synuclein fibrils = γ-synuclein fibrils (UniProt O76070 1-127); experiment: dot blot
γ-synuclein fibrils, sequence (O76070 whole entry): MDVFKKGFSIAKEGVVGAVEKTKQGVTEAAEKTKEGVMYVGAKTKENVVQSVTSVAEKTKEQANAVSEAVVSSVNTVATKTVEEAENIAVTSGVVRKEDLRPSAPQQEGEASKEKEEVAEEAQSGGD
Description: as §1, §2

γ-synuclein monomers = γ-synuclein monomers (UniProt O76070 1-127); experiment: dot blot
γ-synuclein monomers, sequence (O76070 whole entry): as above
Description: as §1, §2

fibrils of NAC (61-95) = molecular target: T22, fibrils of NAC (61-95) (human); experiment: dot blot
T22 construct: also called NAC region (61-95) (F)
Description: as §1, §2

fibrils of NAC (61-78) = molecular target: T3, fibrils of NAC (61-78); experiment: dot blot
Description: as §1, §2

[1] = molecular target: T4, α-synuclein peptide 1 (1-14); experiment: pepscan ELISA
Description: (§3) To confirm the pepscan results using dot blot the mAbs were also tested by Pepscan using ELISA. […] The plate was washed with PBST and 50 μl of substrate (SuperSignal ELISA Femto Maximum Sensitivity Substrate, Thermo Scientific) was added and immediately read the plate using Victor X3 microtiter plate reader. After the ELISA signals were measured, the plate was also exposed onto X-ray film to develop the spots.

[2] = molecular target: T5, α-synuclein peptide 2 (8-21); experiment: pepscan ELISA
Description: as §3

[3] = molecular target: T6, α-synuclein peptide 3 (15-28); experiment: pepscan ELISA
Description: as §3

[4] = molecular target: T7, α-synuclein peptide 6 (36-49); experiment: pepscan ELISA
Description: as §3

[5] = molecular target: T8, α-synuclein peptide 7 (43-56); experiment: pepscan ELISA
Description: as §3

[6] = molecular target: T9, α-synuclein peptide 8 (50-63); experiment: pepscan ELISA
Description: as §3

[7] = molecular target: T10, α-synuclein peptide 9 (57-70); experiment: pepscan ELISA
Description: as §3

[8] = molecular target: T11, α-synuclein peptide 10 (64-77); experiment: pepscan ELISA
Description: as §3

[9] = molecular target: T12, α-synuclein peptide 11 (71-84); experiment: pepscan ELISA
Description: as §3

[10] = molecular target: T13, α-synuclein peptide 12 (78-91); experiment: pepscan ELISA
Description: as §3

[11] = molecular target: T14, α-synuclein peptide 13 (85-98); experiment: pepscan ELISA
Description: as §3

[12] = molecular target: T15, α-synuclein peptide 14 (92-105); experiment: pepscan ELISA
Description: as §3

[13] = molecular target: T16, α-synuclein peptide 15 (99-112); experiment: pepscan ELISA
Description: as §3

[14] = molecular target: T17, α-synuclein peptide 16 (106-119); experiment: pepscan ELISA
Description: as §3

[15] = molecular target: T18, α-synuclein peptide 17 (113-126); experiment: pepscan ELISA
Description: as §3

[16] = molecular target: T19, α-synuclein peptide 18 (120-133); experiment: pepscan ELISA
Description: as §3

| Binder | binding result (A-beta fibrils) | binding result (A-beta monomers) | binding result (IAPP fibrils) | binding result (IAPP monomers) | binding result (β-synuclein fibrils) | binding result (β-synuclein monomers) | binding result (γ-synuclein fibrils) | binding result (γ-synuclein monomers) | binding result (fibrils of NAC (61-95)) | binding result (fibrils of NAC (61-78)) | binding result [1] | binding result [2] | binding result [3] | binding result [4] | binding result [5] | binding result [6] | binding result [7] | binding result [8] | binding result [9] | binding result [10] | other results |
| --- | --- | --- | --- | --- | --- | --- | --- | --- | --- | --- | --- | --- | --- | --- | --- | --- | --- | --- | --- | --- | --- |
| B1 | no binding (tested: 50 ng/ml antibody, 50 ng spotted) | no binding (tested: 50 ng/ml antibody, 50 ng spotted) | no binding (tested: 50 ng/ml antibody, 50 ng spotted) | no binding (tested: 50 ng/ml antibody, 50 ng spotted) | no binding (tested: 50 ng spotted) | no binding (tested: 50 ng spotted) | no binding (tested: 50 ng spotted) | no binding (tested: 50 ng spotted) | no binding (tested: 50 ng spotted) | no binding (tested: 50 ng spotted) | no binding (tested: 100 ng/ml antibody, 500 ng/well peptide) | no binding (tested: 100 ng/ml antibody, 500 ng/well peptide) | no binding (tested: 100 ng/ml antibody, 500 ng/well peptide) | no binding (tested: 100 ng/ml antibody, 500 ng/well peptide) | no binding (tested: 100 ng/ml antibody, 500 ng/well peptide) | no binding (tested: 100 ng/ml antibody, 500 ng/well peptide) | no binding (tested: 100 ng/ml antibody, 500 ng/well peptide) | no binding (tested: 100 ng/ml antibody, 500 ng/well peptide) | no binding (tested: 100 ng/ml antibody, 500 ng/well peptide) | no binding (tested: 100 ng/ml antibody, 500 ng/well peptide) | binding result [11]: no binding (tested: 100 ng/ml antibody, 500 ng/well peptide); binding result [12]: no binding (tested: 100 ng/ml antibody, 500 ng/well peptide); binding result [13]: no binding (tested: 100 ng/ml antibody, 500 ng/well peptide); binding result [14]: no binding (tested: 100 ng/ml antibody, 500 ng/well peptide); binding result [15]: no binding (tested: 100 ng/ml antibody, 500 ng/well peptide); binding result [16]: no binding (tested: 100 ng/ml antibody, 500 ng/well peptide) |
| B2 | no binding (tested: 50 ng/ml antibody, 50 ng spotted) | no binding (tested: 50 ng/ml antibody, 50 ng spotted) | no binding (tested: 50 ng/ml antibody, 50 ng spotted) | no binding (tested: 50 ng/ml antibody, 50 ng spotted) | no binding (tested: 50 ng spotted) | no binding (tested: 50 ng spotted) | no binding (tested: 50 ng spotted) | no binding (tested: 50 ng spotted) | no binding (tested: 50 ng spotted) | no binding (tested: 50 ng spotted) | no binding (tested: 100 ng/ml antibody, 500 ng/well peptide) | no binding (tested: 100 ng/ml antibody, 500 ng/well peptide) | no binding (tested: 100 ng/ml antibody, 500 ng/well peptide) | no binding (tested: 100 ng/ml antibody, 500 ng/well peptide) | no binding (tested: 100 ng/ml antibody, 500 ng/well peptide) | no binding (tested: 100 ng/ml antibody, 500 ng/well peptide) | no binding (tested: 100 ng/ml antibody, 500 ng/well peptide) | no binding (tested: 100 ng/ml antibody, 500 ng/well peptide) | no binding (tested: 100 ng/ml antibody, 500 ng/well peptide) | no binding (tested: 100 ng/ml antibody, 500 ng/well peptide) | binding result [11]: no binding (tested: 100 ng/ml antibody, 500 ng/well peptide); binding result [12]: no binding (tested: 100 ng/ml antibody, 500 ng/well peptide); binding result [13]: no binding (tested: 100 ng/ml antibody, 500 ng/well peptide); binding result [14]: no binding (tested: 100 ng/ml antibody, 500 ng/well peptide); binding result [15]: no binding (tested: 100 ng/ml antibody, 500 ng/well peptide); binding result [16]: no binding (tested: 100 ng/ml antibody, 500 ng/well peptide) |
| B3 | no binding (tested: 50 ng/ml antibody, 50 ng spotted) | no binding (tested: 50 ng/ml antibody, 50 ng spotted) | no binding (tested: 50 ng/ml antibody, 50 ng spotted) | no binding (tested: 50 ng/ml antibody, 50 ng spotted) | no binding (tested: 50 ng spotted) | no binding (tested: 50 ng spotted) | no binding (tested: 50 ng spotted) | no binding (tested: 50 ng spotted) | no binding (tested: 50 ng spotted) | no binding (tested: 50 ng spotted) | no binding (tested: 100 ng/ml antibody, 500 ng/well peptide) | no binding (tested: 100 ng/ml antibody, 500 ng/well peptide) | no binding (tested: 100 ng/ml antibody, 500 ng/well peptide) | no binding (tested: 100 ng/ml antibody, 500 ng/well peptide) | no binding (tested: 100 ng/ml antibody, 500 ng/well peptide) | no binding (tested: 100 ng/ml antibody, 500 ng/well peptide) | no binding (tested: 100 ng/ml antibody, 500 ng/well peptide) | no binding (tested: 100 ng/ml antibody, 500 ng/well peptide) | no binding (tested: 100 ng/ml antibody, 500 ng/well peptide) | no binding (tested: 100 ng/ml antibody, 500 ng/well peptide) | binding result [11]: no binding (tested: 100 ng/ml antibody, 500 ng/well peptide); binding result [12]: no binding (tested: 100 ng/ml antibody, 500 ng/well peptide); binding result [13]: no binding (tested: 100 ng/ml antibody, 500 ng/well peptide); binding result [14]: no binding (tested: 100 ng/ml antibody, 500 ng/well peptide); binding result [15]: no binding (tested: 100 ng/ml antibody, 500 ng/well peptide); binding result [16]: no binding (tested: 100 ng/ml antibody, 500 ng/well peptide) |

Reference: patent US20140241984A1 (UNITED ARAB EMIRATES UNIVERSITY, published 2014)
